One substance from PMC2121097 can be followed below.

Assay [1] deals with Dictyostelium actin filaments (F-actin) (Dictyostelium) (UniProt P07830). In words: steady-state actin critical concentration, sedimentation.
Assay [2] shares this target. The experiment in a line: steady-state actin critical concentration, calibrated pyrene fluorescence.
Assay [3] shares this target. The experiment in a line: steady-state actin critical concentration, uncalibrated pyrene fluorescence.
Assay [4] has as its target Dictyostelium actin monomer (G-actin) (Dictyostelium) (UniProt P07830). The experiment in a line: other fluorescence titration.
Assay [5] shares this target. In words: other fluorescence titration. The source holds these as a separate data set.
Assay [6] has the same target. The experiment in a line: other fluorescence titration. This is another data set of the same source.

Where two headings read alike, the source gives them in different places.

One may read the Kd as the equilibrium constant for the complex coming apart. In the case of “Dictyostelium elongation factor 1 alpha (EF1 alpha) (from UniProt P0CT31 1-453) (natural protein)”, the dissociation constant (Kd) came out at 400 nM in assay [1]; 140 nM in assay [2]; 920 nM in assay [3]; 700 nM in assay [4]; 3.9 µM in assay [5]; 1400 nM in assay [6].
